Sequences and labels used below:
B1: 535 (protein)
chain: MAQGKVALEEHFAIPETLQDAAGFVPGDYWKELQHRLLDIQDTRLKEMDKHEIGTMVLSLAAPAVQAIPDRRKAIELARRANDFLAEEVAKRPDRFLAFAALPMQDPDAATEELQRCVADLGFVGAMVNGFSQEGDGQTPLYYDLPQYRPFWKEVEKLDVPFYLHPRNPLPQDARIYDGHPWLLGPTWAFAQETAVHALRLMASGLFDEHPRLNIILGHMGEGLPYMMYRIDHRIAWVKAPPDYPAKRRFMDYFLENFWITTSGNFRTQTLIDAILEIGADRILFSTDWPFENIDHAADWFNATSIAEADRVKIGRTNARRLFKLDGR
modifications: Dicamba decarboxylase variant
B2: 563 (protein)
chain: MAQGKVALEEHFAIPETLQDAAGFVPGDYWKELQHRLLDIQDERLKEMDKHEIGTMILSLAAPAVQAIPDRRKAIEIARRANDFLAEEVAKRPDRFLAFAALPLQDVDAATEELQRCVNDLGFVGAMVNGFSQEGDGQTPLYYDLPQYRPFWGEVEKLDVPFYLHPRNPLPQDARIYDGHPWLLGPTWAFAQETAVHALRLMASGLFDEHPRLNIILGHLGEGLPYMMYRIDHRIAWVKAPPDYPAKRRFMDYFLENFHITTSGNFRTQTLIDAILEIGADRILFSTDWPFENIDHAADWFAATSIAEADRVKIGRTNARRLFKLDGR
modifications: Dicamba decarboxylase variant
B3: 562 (protein)
chain: MAQGKVALEEHFAIPETLNDAAGFVPGDYWKELQHRLLDIQDTRLKEMDKHEIGTMVLSLAAPAVQAIPDRRKAIELARRANDFLAEEVAKRPDRFLAFAALPLQDVDAATEELQRCVADLGFVGAMVNGFSQEGDGQTPLYYDLPQYRPFWGEVEKLDVPFYLHPRNPLPQDARIYDGHPWLLGPTWAFAQETAVHALRLMASGLFDEHPRLNIILGHMGEGLPYMMYRIDHRIAWVKAPPRYPAKRRFMDYFLENFHITTSGNFRTQTLIDAILEIGADRILFSTDWPFENIDHAADWFAATSIAEADRVKIGRTNARRLFKLDGR
modifications: Dicamba decarboxylase variant
B4: 538 (protein)
chain: MAQGKVALEEHFAIPETLQDAAGFVPGDYWKELQHRLMDIQDTRLKEMDKHEIGTMVLSLAAPAVQAIPDRRKAIEIARRANDFLAEEVAKRPDRFLAFAALPMQDPEAATSELQRCVADLGFVGAMVNGFSQEGDGQTPLYYDLPQYRPFWGEVEKLDVPFYLHPRNPLPQDARIYDGHPWLLGPTWAFAQETAVHALRLMASGLFDEHPRLNIILGHMGEGLPYMMYRIDHRIAWVKAPPDYPAKRRFMDYFLENFHITTSGNFRTQTLIDAILEIGADRILFSTDWPFENIDHAADWFNATSIAEADRVKIGRTNARRLFKLDGR
modifications: Dicamba decarboxylase variant
B5: 567 (protein)
chain: MAQGLVALEEHFAIPETLQDAAGFVPGDYWKELQHRLLDIQDTRLKEMDKHEIGTMVLSLAAPAVQAIPDRRKAIEIARRANDFLAEEVAKRPDRFLAFAALPMQDPEAATEELQRCVADLGFVGAMVNGFSQEGDGQTPLYYDLPQYRPFWGEVEKLDVPFYLHPRNPLPQDSRIYDGHPWLLGPTWAFAQETAVHALRLMASGLFDEHPRLNIILGHLGEGLPYMMYRIDHRIAWVKAPPDYPAKRRFMDYFLENFHITTSGNFRTQTLIDAILEIGADRILFSTDWPFENIDHAADWFAATSIAEADRVKIGRTNARRLFKLDVR
modifications: Dicamba decarboxylase variant
B6: 566 (protein)
chain: MAQGKVALEEHFAIPETLQDAAGFVPGDYWKELQHRLLDIQDTRLKEMDRHEIGTMVLSLAAPAVQAIPDRRKAIEIARRANDFLAEEVAKRPDRFLAFAALPMQDVDAATEELQRCVNDLGFVGAMVNGFSQEGDGQTPLYYDLPQYRPFWGEVEKLDVPFYLHPRNPLPQDSRIYDGHPWLLGPTWAFAQETAVHALRLMASGLFDEHPRLNIILGHLGEGLPYMMYRIDHRIAWVKAPPDYPAKRRFMDYFLENFHITTSGNFRTQTLIDAILEIGADRILFSTDWPFENIDHAADWFNATSIAEADRVKIGRTNARRLFKLDGR
modifications: Dicamba decarboxylase variant
B7: 537 (protein)
chain: MAQGKVALEEHFAIPETLQDAAGFVPGDYWKELQHRLLDIQDTRLKEMDKHEIGTMVLSLAAPAVQAIPDRRKAIELARRANDFLAEEVAKRPDRFLAFAALPLQDVDAATEELQRCVNDLGFVGAMVNGFSQEGDGQTPLYYDLPQYRPFWGEVEKLDVPFYLHPRNPLPQDARIYDGHPWLLGPTWAFAQETAVHALRLMASGLFDEHPRLNIILGHMGEGLPYMMYRIDHRIAWVKAPPDYPAKRRFMDYFLENFWITTSGNFRTQTLIDAILEIGADRILFSTDWPFENIDHAADWFNATSIAEADRVKIGRTNARNLFKLDVR
modifications: Dicamba decarboxylase variant
B8: 536 (protein)
chain: MAQGKVALEEHFAIPETLQDAAGFVPGDYWKELQHRLLDIQDERLKEMDKHEIGTMVLSLAAPAVQAIPDRRKAIELAKRANDFLAEEVAKRPDRFLAFAALPLQDVDAATEELQRCVNDLGFVGAMVNGFSQEGDGQTPLYYDLPQYRPFWGEVEKLDVPFYLHPRNPLPQDSRIYDGHPWLLGPTWAFAQETAVHALRLMASGLFDEHPRLNIILGHMGEGLPYMMYRIDHRIAWVKAPPDYPAKRRFMDYFLENFHITTSGNFRTQTLIDAILEIGADRILFSTDWPFENIDHAADWFAATSIAEADRVKIGRTNARRLFKLDGR
modifications: Dicamba decarboxylase variant
B9: 568 (protein)
chain: MAQGLVALEEHFAIPETLQDAAGFVPGDYWKELQHRLLDIQDTRLKEMDKHEIGTMVLSLAAPAVQAIPDRRKAIELARRANDFLAEEVAKRPDRFLAFAALPMQDPEAATEELQRCVADLGFVGAMVNGFSQEGDGQTPLYYDLPQYRPFWGEVEKLDVPFYLHPRNPLPQDARIYDGHPWLLGPTWAFAQETAVHALRLMASGLFDEHPRLNIILGHLGEGLPYMMYRIDHRIAWVKAPPDYPAKRRFMDYFLENFHITTSGNFRTQTLIDAILEIGADRILFSTDWPFENIDHAADWFNATSIAEADRVKIGRTNARRLFKLDGR
modifications: Dicamba decarboxylase variant
B10: 564 (protein)
chain: MAQGLVALEEHFAIPETLQDAAGFVPGDYWKELQHRLLDIQDTRLKEMDKHEIGTMVLSLAAPAVQAIPDRRKAIEIARRANDFLAEEVAKRPDRFLAFAALPLQDVDAATEELQRCVADLGFVGAMVNGFSQEGDGQTPLYYDLPQYRPFWGEVEKLDVPFYLHPRNPLPQDARIYDGHPWLLGPTWAFAQETAVHALRLMASGLFDEHPRLNIILGHMGEGLPYMMYRIDHRIAWVKAPPDYPAKRRFMDYFLENFHITTSGNFRTQTLIDAILEIGADRILFSTDWPFENIDHAADWFNATSIAEADRVKIGRTNARRLFKLDGR
modifications: Dicamba decarboxylase variant
B11: 571 (protein)
chain: MAQGLVALEEHFAIPETLQDAAGFVPGDYWKELQHRLLDIQDTRLKEMDKHGIGTMILSLAAPAVQAIPDRRQAIELARRANDFLAEEVAKRPDRFLAFAALPLQDVDAATSELQRCVADLGFVGAMVNGFSQEGDGQTPLYYDLPQYRPFWGEVEKLDVPFYLHPRNPLPQDARIYDGHPWLLGPTWAFAQETAVHALRLMASGLFDEHPRLNIILGHLGEGLPYMMYRIDHRIAWVKAPPDYPAKRRFMDYFLENFHITTSGNFRTQTLIDAILEIGADRILFSTDWPFENIDHAADWFNATSIAEADRVKIGRTNARRLFKLDGR
modifications: Dicamba decarboxylase variant
B12: 565 (protein)
chain: MAQGLVALEEHFAIPETLNDAADFVPGDYWKELQHRLLDIQDTRLKEMDKHGIGTMILSLAAPAVQAIPDRRKAIELARRANDFLAEEVAKRPDRFLAFAALPLQDVDAATEELQRCVADLGFVGAMVNGFSQEGDGQTPLYYDLPQYRPFWGEVEKLDVPFYLHPRNPLPQDSRIYDGHPWLLGPTWAFAQETAVHALRLMASGLFDEHPRLNIILGHMGEGLPYMMYRIDHRIAWVKAPPDYPAKRRFMDYFLENFHITTSGNFRTQTLIDAILEIGADRILFSTDWPFENIDHAADWFNATSIAEADRVKIGRTNARRLFKLDGR
modifications: Dicamba decarboxylase variant
B13: 569 (protein)
chain: MAQGLVALEEHFAIPETLQDAAGFVPGDYWKELQHRLLDIQDTRLKEMDKHEIGTMILSLAAPAVQAIPDRRKAIEIAKRANDFLAEEVAKRPDRFLAFAALPLQDVEAATSELQRCVNDLGFVGAMVNGFSQEGDGQTPLYYDLPQYRPFWGEVEKLDVPFYLHPRNPLPQDSRIYDGHPWLLGPTWAFAQETAVHALRLMASGLFDEHPRLNIILGHMGEGLPYMMYRIDHRIAWVKAPPRYPAKRRFMDYFLENFHITTSGNFRTQTLIDAILEIGADRILFSTDWPFENIDHAADWFAATSIAEADRVKIGRTNARRLFKLDVS
modifications: Dicamba decarboxylase variant
B14: 561 (protein)
chain: MAQGLVALEEHFAIPETLQDAAGFVPGDYWKELQHRLMDMQDTRLKEMDKHGIGTMVLSLAAPAVQAIPDRRQAIEIARRANDFLAEEVAKRPDRFLAFAALPMQDPDAATEELQRCVADLGFVGAMVNGFSQEGDGQTPLYYDLPQYRPFWGEVEKLDVPFYLHPRNPLPQDARIYDGHPWLLGPTWAFAQETAVHALRLMASGLFDEHPRLNIILGHMGEGLPYMMYRIDHRIAWVKAPPRYPAKRRFMDYFLENFHITTSGNFRTQTLIDAILEIGADRILFSTDWPFENIDHAADWFAATSIAEADRVKIGRTNARRLFKLDVR
modifications: Dicamba decarboxylase variant
B15: 570 (protein)
chain: MAQGLVALEEHFAIPETLQDAAGFVPGDYWKELQHRLLDMQDTRLKEMDKHGIGTMILSLAAPAVQAIPDRRKAIEIARRANDFLAEEVAKRPDRFLAFAALPLQDPEAATEELQRCVADLGFVGAMVNGFSQEGDGQTPLYYDLPQYRPFWGEVEKLDVPFYLHPRNPLPQDSRIYDGHPWLLGPTWAFAQETAVHALRLMASGLFDEHPRLNIILGHMGEGLPYMMYRIDHRIAWVKAPPDYPAKRRFMDYFLENFHITTSGNFRTQTLIDAILEIGADRILFSTDWPFENIDHAADWFNATSIAEADRVKIGRTNARRLFKLDVR
modifications: Dicamba decarboxylase variant

The experiment is described as follows: DNA shuffling libraries: 14CO2 capturing assay in 384-well format, fold activity of backbone (Megatable 2). Particulars: relative to backbone SEQ ID NO: 509 (DDEC0810).
With B1, the “Fold Activity” value turned out to be 1.1 fold.
On to B2, for which the “Fold Activity” value is recorded as 0.9 fold.
In the case of B3 it was 1.7 fold; in that of B4, 1.0 fold; in that of B5, 1.1 fold.
In the case of B6 it was 0.9 fold.
Take B7: the “Fold Activity” value amounted to 1.3 fold.
The figure for B8 is 1.3 fold; for B9 it is 1.6 fold; for B10 it is 0.9 fold.
In the case of B11 it was 0.9 fold; in that of B12, 1.1 fold.
In the case of B13 it was 1.3 fold; in that of B14, 1.1 fold; in that of B15, 1.3 fold.
